According to paper PMC2817469:

B1: Fork (structured_DNA)
DNA: TTCACGAGATTTACTTATTTCACTGCGGCTACATGATGCATCGTTAGGCGATTCCGCCTAACGATGCATCATGTTGTTACCCTTTGA
B2: Flap (30-nt 5'-flap) (structured_DNA)
DNA: TTCACGAGATTTACTTATTTCACTGCGGCTACATGATGCATCGTTAGGCGATTCCGCCTAACGATGCATCATGTCGCGAACCCTATTTAGGGTTCGCG
B3: Biotin-Flap, streptavidin-blocked (structured_DNA)
DNA: B2 DNA
modifications: 5' biotin
B4: 5'-Tail (structured_DNA)
DNA: TTCACGAGATTTACTTATTTCACTGCGGCTACATGATGCATCGTTAGGCGATTCCGCCTAACGATGCATCATGT
B5: Double-Flap (structured_DNA)
DNA: TTCACGAGATTTACTTATTTCACTGCGGCTACATGATGCATCGTTAGGCGATTCCGCCTAACGATGCATCATGTCGCGAACCCTATTTAGGGTTCGCGT
B6: Nick (structured_DNA)
DNA: ACATGATGCATCGTTAGGCGATTCCGCCTAACGATGCATCATGTCGCGAACCCTATTTAGGGTTCGCG
B7: Gap (20-nt) (structured_DNA)
DNA: ACATGATGCATCGTTAGGCGATTCCGCCTAACGATGCATCATGTTTTTTTTTTTTTTTTTTTTTCGCGAACCCTATTTAGGGTTCGCG

Assays:
[1] = biological target: T1, Dna2 E675A (nuclease-defective) (UniProt P38859 1-1522, E675A); test: EMSA
T1 sequence (P38859 whole entry E675A): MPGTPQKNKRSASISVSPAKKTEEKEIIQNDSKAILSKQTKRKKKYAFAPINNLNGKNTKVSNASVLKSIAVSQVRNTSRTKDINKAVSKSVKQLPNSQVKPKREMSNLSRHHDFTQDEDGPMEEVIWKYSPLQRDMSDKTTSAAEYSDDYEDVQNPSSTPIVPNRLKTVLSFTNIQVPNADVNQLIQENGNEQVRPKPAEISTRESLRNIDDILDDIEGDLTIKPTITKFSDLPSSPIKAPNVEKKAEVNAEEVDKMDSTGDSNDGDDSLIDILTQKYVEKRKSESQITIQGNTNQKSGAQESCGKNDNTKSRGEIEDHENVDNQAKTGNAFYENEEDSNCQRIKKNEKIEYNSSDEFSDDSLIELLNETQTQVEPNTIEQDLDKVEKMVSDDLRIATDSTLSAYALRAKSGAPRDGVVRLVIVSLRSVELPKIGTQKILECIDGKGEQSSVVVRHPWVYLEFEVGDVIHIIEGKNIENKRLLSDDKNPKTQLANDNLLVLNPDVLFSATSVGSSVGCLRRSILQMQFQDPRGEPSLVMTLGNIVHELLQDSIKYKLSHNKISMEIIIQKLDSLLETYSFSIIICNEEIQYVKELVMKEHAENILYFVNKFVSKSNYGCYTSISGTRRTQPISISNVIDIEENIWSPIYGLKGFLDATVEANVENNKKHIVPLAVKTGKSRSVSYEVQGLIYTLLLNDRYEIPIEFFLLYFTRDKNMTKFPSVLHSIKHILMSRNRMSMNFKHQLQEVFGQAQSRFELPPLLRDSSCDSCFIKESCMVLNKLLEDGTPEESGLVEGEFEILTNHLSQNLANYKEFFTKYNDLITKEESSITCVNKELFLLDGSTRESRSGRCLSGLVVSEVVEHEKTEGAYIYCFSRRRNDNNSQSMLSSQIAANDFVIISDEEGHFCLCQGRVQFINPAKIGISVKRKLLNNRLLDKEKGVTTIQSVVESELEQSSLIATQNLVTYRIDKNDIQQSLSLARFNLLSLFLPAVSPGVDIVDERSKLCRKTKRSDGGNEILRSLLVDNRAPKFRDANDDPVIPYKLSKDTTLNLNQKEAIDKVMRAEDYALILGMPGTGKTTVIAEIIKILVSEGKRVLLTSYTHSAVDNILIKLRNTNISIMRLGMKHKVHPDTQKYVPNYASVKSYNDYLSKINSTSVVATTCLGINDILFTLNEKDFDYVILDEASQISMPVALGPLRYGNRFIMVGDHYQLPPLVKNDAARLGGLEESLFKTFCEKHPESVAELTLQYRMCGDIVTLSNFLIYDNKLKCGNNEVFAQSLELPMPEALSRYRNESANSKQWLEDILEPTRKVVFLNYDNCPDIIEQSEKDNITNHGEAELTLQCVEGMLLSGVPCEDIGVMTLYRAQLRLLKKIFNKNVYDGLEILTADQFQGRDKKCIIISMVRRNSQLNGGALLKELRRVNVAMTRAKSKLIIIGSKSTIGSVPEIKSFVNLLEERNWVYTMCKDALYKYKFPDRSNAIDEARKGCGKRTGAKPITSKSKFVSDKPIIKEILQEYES

[2] = biological target: T1, Dna2 E675A (nuclease-defective); test: competition
[3] = biological target: T1, Dna2 E675A (nuclease-defective); test: competition; remark: listed apart in the source
[4] = biological target: T1, Dna2 E675A (nuclease-defective); test: DNase I footprinting

| Binder | Kd [1] [nM] | other results |
| --- | --- | --- |
| B1 | 9.2 |  |
| B2 | 8.4 |  |
| B3 |  | binding result [2]: binds |
| TTCACGAGATTTACTTATTTCACTGCGGCT (ssDNA) [ssDNA 30-nt] |  | binding result [3]: binds |
| B4 | 8.5 |  |
| B5 | 7 |  |
| B6 |  | binding result [4]: binds |
| B7 | 6.7 |  |
